# Laboratory results taken from US6416738B1, “Pretargeting methods and compounds” (NeoRx Corporation, priority 1973, dated 2002).
# T1: NR-LU-10 antigen (Homo sapiens, UniProt P16422)
# T1 construct: Positive NR-LU-10 tissue reactivity indicates NR-LU-10 antigen expression by such tissues; from tissue; host or cells: carcinoma and normal tissue specimens
# T1 sequence (P16422 24-314): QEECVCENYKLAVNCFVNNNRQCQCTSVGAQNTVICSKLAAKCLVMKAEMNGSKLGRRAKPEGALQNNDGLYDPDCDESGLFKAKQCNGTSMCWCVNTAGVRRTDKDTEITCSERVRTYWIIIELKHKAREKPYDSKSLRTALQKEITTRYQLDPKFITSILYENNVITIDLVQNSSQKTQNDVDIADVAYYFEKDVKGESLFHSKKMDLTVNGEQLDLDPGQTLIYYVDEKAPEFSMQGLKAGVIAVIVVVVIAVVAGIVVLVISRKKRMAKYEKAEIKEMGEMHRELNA
# B1: NR-LU-10: 150 kilodalton IgG2b monoclonal antibody recognizing an approximately 40 kilodalton glycoprotein antigen expressed on most carcinomas (antibody, V domains shown)
# VH: EVQLQQSGAELVKPGASVRLSCTASGFNIKDTYMHWVIERPEQGLEWIGRIDPANGNTKCDPKFQGKATITADTSSNTAYLQLSSLTSEDTAVYYCSREVLTGTWSLDYWGQGTSVTVSS
# VL: DIQMIQSPSSMFASLGDRVSLSCRASQGIRGNLDWYQQKPGGTIKLLIYSTSNLNSGVPSRFSGSGSGSDYSLTISSLDSEDFADYYCLQRNAYPYTFGGGTKLEIK
# Experiments:
# [1] = molecular target: T1, NR-LU-10 antigen; test: NR-LU-10 tumor tissue reactivity (Table A); assay type: binding
# Text: Radioimmunoassays, immunoprecipitation and Fluorescence-Activated Cell Sorter (FACS) analysis were used to obtain reactivity profiles of NR-LU-10. The NR-LU-10 target antigen was present on either fixed cultured cells or in detergent extracts of various types of cancer cells. For example, the NR-LU-10 antigen is found in small cell lung, non-small cell lung, colon, breast, renal, ovarian, pancreatic, and other carcinoma tissues. Tumor reactivity of the NR-LU-10 antibody is set forth in Table A, while NR-LU-10 reactivity with normal tissues is set forth in Table B. The values in Table B are obtained as described below. Positive NR-LU-10 tissue reactivity indicates NR-LU-10 antigen expression by such tissues.
# [2] = Human clinical trials of NR-LU-10; assay type: in vivo; conditions: over 565 patients
# Method: The hybridoma secreting NR-LU-10 was developed by fusing mouse splenocytes immunized with intact cells of a human small cell lung carcinoma with P3×63/Ag8UI murine myeloma cells. After establishing a seed lot, the hybridoma was grown via in vitro cell culture methods, purified and verified for purity and sterility.
molecule,measurement,setting,value
B1,# Pos/Exam,[1]; Breast Adenocarcinoma,23/23
same,Intensity Avg. (rated 0-3),[1]; Breast Adenocarcinoma,2.9
same,Percent Avg. (cells stained),[1]; Breast Adenocarcinoma,97%
same,Uniformity Avg. (rated 0-3),[1]; Breast Adenocarcinoma,2.8
same,# Pos/Exam,[1]; Colon Carcinoma,12/12
same,Intensity Avg. (rated 0-3),[1]; Colon Carcinoma,2.9
same,Percent Avg. (cells stained),[1]; Colon Carcinoma,98%
same,Uniformity Avg. (rated 0-3),[1]; Colon Carcinoma,2.9
same,# Pos/Exam,[1]; Liposarcoma,0/2
same,Intensity Avg. (rated 0-3),[1]; Liposarcoma,0
same,Percent Avg. (cells stained),[1]; Liposarcoma,0%
same,Uniformity Avg. (rated 0-3),[1]; Liposarcoma,0
same,# Pos/Exam,[1]; Lung Adenocarcinoma,8/8
same,Intensity Avg. (rated 0-3),[1]; Lung Adenocarcinoma,3
same,Percent Avg. (cells stained),[1]; Lung Adenocarcinoma,100%
same,Uniformity Avg. (rated 0-3),[1]; Lung Adenocarcinoma,2.2
same,# Pos/Exam,[1]; Lung Small Cell Carcinoma,2/2
same,Intensity Avg. (rated 0-3),[1]; Lung Small Cell Carcinoma,3
same,Percent Avg. (cells stained),[1]; Lung Small Cell Carcinoma,100%
same,Uniformity Avg. (rated 0-3),[1]; Lung Small Cell Carcinoma,2
same,# Pos/Exam,[1]; Lung Squamous Cell Carcinoma,8/8
same,Intensity Avg. (rated 0-3),[1]; Lung Squamous Cell Carcinoma,2.3
same,Percent Avg. (cells stained),[1]; Lung Squamous Cell Carcinoma,73%
same,Uniformity Avg. (rated 0-3),[1]; Lung Squamous Cell Carcinoma,1.8
same,# Pos/Exam,[1]; Lymphoma,0/2
same,Intensity Avg. (rated 0-3),[1]; Lymphoma,0
same,Percent Avg. (cells stained),[1]; Lymphoma,0%
same,Uniformity Avg. (rated 0-3),[1]; Lymphoma,0
same,# Pos/Exam,[1]; Malignant Melanoma,0/11
same,Intensity Avg. (rated 0-3),[1]; Malignant Melanoma,0
same,Percent Avg. (cells stained),[1]; Malignant Melanoma,0%
same,Uniformity Avg. (rated 0-3),[1]; Malignant Melanoma,0
same,# Pos/Exam,[1]; Malignant Melanoma Ocular,0/2
same,Intensity Avg. (rated 0-3),[1]; Malignant Melanoma Ocular,0
same,Percent Avg. (cells stained),[1]; Malignant Melanoma Ocular,0%
same,Uniformity Avg. (rated 0-3),[1]; Malignant Melanoma Ocular,0
same,# Pos/Exam,[1]; Osteosarcoma,1/1
same,Intensity Avg. (rated 0-3),[1]; Osteosarcoma,2
same,Percent Avg. (cells stained),[1]; Osteosarcoma,20%
same,Uniformity Avg. (rated 0-3),[1]; Osteosarcoma,1
same,# Pos/Exam,[1]; Ovarian Carcinoma,35/35
same,Intensity Avg. (rated 0-3),[1]; Ovarian Carcinoma,2.9
same,Percent Avg. (cells stained),[1]; Ovarian Carcinoma,100%
same,Uniformity Avg. (rated 0-3),[1]; Ovarian Carcinoma,2.2
same,# Pos/Exam,[1]; Pancreas Carcinoma,6/6
same,Intensity Avg. (rated 0-3),[1]; Pancreas Carcinoma,3
same,Percent Avg. (cells stained),[1]; Pancreas Carcinoma,100%
same,Uniformity Avg. (rated 0-3),[1]; Pancreas Carcinoma,2.3
same,# Pos/Exam,[1]; Prostate Carcinoma,9/9
same,Intensity Avg. (rated 0-3),[1]; Prostate Carcinoma,2.8
same,Percent Avg. (cells stained),[1]; Prostate Carcinoma,95%
same,Uniformity Avg. (rated 0-3),[1]; Prostate Carcinoma,2
same,# Pos/Exam,[1]; Renal Carcinoma,8/9
same,Intensity Avg. (rated 0-3),[1]; Renal Carcinoma,2.2
same,Percent Avg. (cells stained),[1]; Renal Carcinoma,83%
same,Uniformity Avg. (rated 0-3),[1]; Renal Carcinoma,1
same,# Pos/Exam,[1]; Synovial Sarcoma,0/1
same,Intensity Avg. (rated 0-3),[1]; Synovial Sarcoma,0
same,Percent Avg. (cells stained),[1]; Synovial Sarcoma,0%
same,Uniformity Avg. (rated 0-3),[1]; Synovial Sarcoma,0
same,# Pos/Exam,[1]; Undifferentiated Carcinoma,1/1
same,Intensity Avg. (rated 0-3),[1]; Undifferentiated Carcinoma,2
same,Percent Avg. (cells stained),[1]; Undifferentiated Carcinoma,90%
same,Uniformity Avg. (rated 0-3),[1]; Undifferentiated Carcinoma,2
same,# Pos/Exam,[1]; Uterine Leiomyosarcoma,0/1
same,Intensity Avg. (rated 0-3),[1]; Uterine Leiomyosarcoma,0
same,Percent Avg. (cells stained),[1]; Uterine Leiomyosarcoma,0%
same,Uniformity Avg. (rated 0-3),[1]; Uterine Leiomyosarcoma,0
same,safety in human clinical trials,[2],safely administered
